Values belong to the binder of their own block, whether it stands above or below them. Ends that are not written are not given here. * marks the point of attachment. Biotin = O=C1N[C@H]2[C@H](CS[C@H]2CCCCC(=O)*)N1
Tests used:
[1] = target: T1, BSA-conjugated human MS4A4A ECL2 peptide (amino acid residues 159-179) (human, conjugated to BSA (site not stated)); experiment: ELISA, hybridoma supernatant
T1 construct: also called MS4A4A-ECL2 BSA conjugated peptide; BSA-MS4A4A-ELC2 peptide
T1 peptide: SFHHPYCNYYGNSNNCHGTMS

[2] = target: T2, human MS4A6A ECL2 peptide (amino acid residues 138-185) (human); experiment: array SPR
T2 peptide: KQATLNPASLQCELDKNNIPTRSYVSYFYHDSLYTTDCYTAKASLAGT

[3] = target: T3, human MS4A6A ECL1 peptide (amino acid residues 68-85) (human); experiment: array SPR
T3 peptide: SASFSPNFTQVTSTLLNS

[4] = target: T4, human MS4A4A ECL1 peptide (amino acid residues 86-98) (human); experiment: array SPR
T4 construct: synthetic peptide
T4 peptide: CMASNTYGSNPIS

[5] = target: T5, cynomolgus (cyno) MS4A4A (cynomolgus); experiment: FACS, HEK293, supernatant
T5 construct: also called cy4A; Cyno 4A

[6] = target: T6, human MS4A4A ECL2 peptide (amino acid residues 159-179), free (human); experiment: array SPR (Carterra MX-96), antibody captured, peptide in solution
T6 construct: synthetic peptide; also called huMS4A4A-ELC2 free-peptide
T6 peptide: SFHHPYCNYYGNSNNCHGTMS
Description: Binding kinetic characterization of the anti-MS4A4A antibodies to MS4A4A ECL1 and ECL2 and to MS4A6A ECL1 and ECL2 peptides was performed by Carterra (South San Francisco, Calif.) using a proprietary array Surface Plasmon Resonance (SPR) instrument (MX-96) as follows. Antibodies were captured onto a CMD500D chip (Xantec # SPMX CMD500D) using the Continous Flow Microspotter (CFM). First, the chip was activated with 100 mM MES pH 5.5, 100 μL EDC (133 mM final), 100 μL of S-NHS (33.3 mM final), for 7 minutes. […] Anti-MS4A4A hydridoma supernatant or purified anti-MS4A4A antibodies were diluted in HBS-EP+ buffer (Teknova Cat # H8022) and then printed as duplicates with a 20 minute and a 5-minute print from the same sample solution.
These were then injected on the chip for five minutes, followed by a seven-minute dissociation period at 8 uL per second in a non-regenerative kinetic series. Duplicate measurements for each anti-MS4A4A antibody were taken to ensure reproducibility. Association rates (Kon) and dissociation rates (Koff) were calculated using a single one-to-one Langmuir binding model. The equilibrium dissociation constant (KD) was calculated as the ration of Koff/Kon.

[7] = target: T7, peptide 4A.3 (human); experiment: array SPR, peptide on streptavidin chip
T7 construct: 15-mer of human MS4A4A
T7 peptide: Biotin-CMASNTYGSNPISVY
Description: (§1) Epitope binding characteristics of anti-MS4A4A antibodies are determined by two complementary approaches. First, a panel of overlapping peptides derived from the extracellular loops (ECLs) of human MS4A4A (SEQ ID NO:1) and human MS4A6A (SEQ ID NO: 291) were synthesized by JPT peptides (Berlin, Germany). These peptides were 15 amino acids in length, each offset by 2 amino acids. The peptides were biotinylated on the N-terminus. […] Anti-MS4A4A antibodies of the present disclosure and commercially-available anti-MS4A4A antibodies were tested for binding to the various linear peptides by Carterra (South San Francisco, Calif., USA) using a proprietary array SPR instrument (MX-96).
(§2) The peptide library was printed onto a streptavidin-coated chip (Xantec SAD50M, Dusseldorf, Germany) using the Continuous Flow Microspotter (CFM). First, the chip was activated with 100 mM MES, pH 5.5, 100 μL EDC (133 mM final), 100 μL of S-NHS (33.3 mM final). The peptide library was immobilized onto the chip at 250 nM per peptide diluted into HBS-EP+buffer (Teknova Cat # H8022) with 1 mg/ml BSA and 1 μg/ml mouse IgG-Biotin. Following immobilization, the chip surface was deactivated with 1M ethanolamine at pH 8.5 for 10 minutes. Hybridoma supernatants and purified anti-MS4A4A antibodies were diluted in HBS-EP+buffer with 1 mg/ml BSA and injected onto the chip. Duplicate measurements for each anti-MS4A4A antibody were taken to ensure reproducibility. Binding characteristics were determined for each peptide-antibody combination, allowing the mapping of the linear peptide region each antibody interacts with.

[8] = target: T8, peptide 4A.7 (human); experiment: array SPR, peptide on streptavidin chip
T8 construct: 15-mer of human MS4A4A
T8 peptide: Biotin-SFHHPYCNYYGNSNN
Description: as §1, §2

[9] = target: T9, peptide 4A.11 (human); experiment: array SPR, peptide on streptavidin chip
T9 construct: 15-mer of human MS4A4A
T9 peptide: Biotin-YYGNSNNCHGTMSIL
Description: as §1, §2

[10] = target: T10, peptide 4A.1 (human); experiment: array SPR, peptide on streptavidin chip
T10 construct: 15-mer of human MS4A4A
T10 peptide: Biotin-ITMMCMASNTYGSNP
Description: as §1, §2

[11] = target: T11, peptide 4A.5 (human); experiment: array SPR, peptide on streptavidin chip
T11 construct: 15-mer of human MS4A4A
T11 peptide: Biotin-LAFYSFHHPYCNYYG
Description: as §1, §2

[12] = target: T12, peptide 4A.8 (human, cysteine pairing not given here); experiment: array SPR, peptide on streptavidin chip
T12 construct: 15-mer of human MS4A4A
T12 peptide: Biotin-HHPYCNYYGNSNNCH
Description: as §1, §2

[13] = target: T13, peptide 4A.2 (human); experiment: array SPR, peptide on streptavidin chip
T13 construct: 15-mer of human MS4A4A
T13 peptide: Biotin-MMCMASNTYGSNPIS
Description: as §1, §2

[14] = target: T14, peptide 4A.9 (human, cysteine pairing not given here); experiment: array SPR, peptide on streptavidin chip
T14 construct: 15-mer of human MS4A4A
T14 peptide: Biotin-PYCNYYGNSNNCHGT
Description: as §1, §2

[15] = target: T15, peptide 4A.4 (human); experiment: array SPR, peptide on streptavidin chip
T15 construct: 15-mer of human MS4A4A
T15 peptide: Biotin-ASNTYGSNPISVYIG
Description: as §1, §2

[16] = target: T16, peptide 4A.10 (human, cysteine pairing not given here); experiment: array SPR, peptide on streptavidin chip
T16 construct: 15-mer of human MS4A4A
T16 peptide: Biotin-CNYYGNSNNCHGTMS
Description: as §1, §2

[17] = target: T17, peptide 4A.6 (human); experiment: array SPR, peptide on streptavidin chip
T17 construct: 15-mer of human MS4A4A
T17 peptide: Biotin-FYSFHHPYCNYYGNS
Description: as §1, §2

[18] = target: T18, peptide 4A.12 (human); experiment: array SPR, peptide on streptavidin chip
T18 construct: 15-mer of human MS4A4A
T18 peptide: Biotin-GNSNNCHGTMSILMG
Description: as §1, §2

[19] = target: T4, human MS4A4A ECL1 peptide (amino acid …); experiment: peptide ELISA
Procedure, shortened: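 Free or BSA-conjugated peptides were coated at 2 or 10 […] in 0.05M carbonate buffer, pH 9.6, overnight at 4 °C, then blocked 1 h with PBS+0.5% BSA+0.05% Tween20. Antibodies were bound 30 min at room temperature with shaking. TMB was developed 5-10 min, stopped, and absorbance read at 650 nm.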

[20] = target: T5, cynomolgus (cyno) MS4A4A; experiment: FACS, stably transfected cells
[21] = target: T19, human MS4A4A (human, UniProt Q96JQ5 1-239); experiment: FACS, K562 cells, supernatant; K562 cells overexpressing h4A
Description: (§3) Positive clones identified in Example 22 above were expanded and then rescreened for specificity against U937, K562, and/or 300.19 cells stably overexpressing human MS4A4A or cyno MS4A4A and parental U937, K562, and/or 300.19 cells. These experiments were performed using supernatants from hybridoma clones which had undergone further expansion after initial selection. Briefly, stably transfected cells were labeled with LIVE/DEAD Fixable Aqua Dead Cell Stain Kit (ThermoFisher Scientific Cat#L34957) on ice for 30 minutes. […] 2×10⁵ cells were aliquoted per well in 96-well U-bottom plates and incubated with 50 μl of culture supernatant on ice for 30 minutes. […] Following this secondary incubation, the cells were again washed twice with ice-cold FACS buffer and resuspended in a final volume of 200 μl of FACS buffer. Analysis was performed on a FACS Canto system (BD Biosciences), with gates drawn to exclude dead (Aqua-positive) cells.
(§4) The APC ratio was calculated for each antibody as follows. […] For cell lines overexpressing human MS4A4A (h4A) or cyno MS4A4A (cy4A), the ration was calculated by comparing the binding measured to the binding observed on the corresponding parental cell lines.

[22] = target: T19, human MS4A4A; experiment: FACS, U937 cells, supernatant; U937 cells overexpressing h4A
Description: as §3, §4

[23] = target: T6, human MS4A4A ECL2 peptide (amino acid …); experiment: peptide ELISA, supernatant
[24] = target: T19, human MS4A4A; experiment: FACS, U937 cells, supernatant; U937 cells overexpressing h4A, ratio over parental U937; parental U937 itself scores +
Description: as §3, §4

[25] = target: T5, cynomolgus (cyno) MS4A4A; experiment: flow cytometry (anti-mouse IgG Fc-APC), hybridoma supernatant on 300.19 cells transfected with cyno MS4A4A
Description: Flow cytometry was performed as follows. Briefly, transiently-transfected cells were labeled with LIVE/DEAD Fixable Aqua Dead Cell Stain Kit (ThermoFisher Scientific Cat#L34957) on ice for 30 minutes. […] 2×10⁵ cells were aliquoted per well in 96-well U-bottom plates and incubated with 50 μl of culture supernatant on ice for 30 minutes. […] Following this secondary incubation, the cells were again washed twice with ice-cold FACS buffer and resuspended in a final volume of 200 μl of FACS buffer. Analysis was performed on a FACS Canto system (BD Biosciences), with gates drawn to exclude dead (Aqua-positive) cells.

[26] = target: T19, human MS4A4A; experiment: FACS, HEK293, supernatant
[27] = target: T1, BSA-conjugated human MS4A4A ECL2 …; experiment: ELISA, supernatant

binding result [1]: no binding | binding result [2]: no binding (tested: 2000 nM) | binding result [3]: no binding (tested: 2000 nM) | binding result [4]: no binding (tested: 2000 nM)
B1: anti-MS4A4A antibody 4A-24 (antibody, V domains shown)
VH: EVKLEESGGGLVQPGGSMKLSCAASGFTFSDAWMDWVRQSPEKGLEWVAEIRDNADNHPTYYAESVKGRFTISRDDSKSSVYLQMNSLRAEDTGIYYCTSDYYGSHWGQGTTLTVSS
VL: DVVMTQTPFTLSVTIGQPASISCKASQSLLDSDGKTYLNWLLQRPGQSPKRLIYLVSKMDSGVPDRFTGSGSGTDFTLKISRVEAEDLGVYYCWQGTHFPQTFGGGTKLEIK
notes: murine hybridoma antibody

Cyno 4A:parental cell ratio [5]: 1.31 ratio | Kd [6]: 31 nM | koff [6]: 0.0078 s⁻¹ | kon [6]: 250000 M⁻¹ s⁻¹ | SPR binding signal [7]: -10.6 | SPR binding signal [8]: 446 | SPR binding signal [9]: -6.5 | SPR binding signal [10]: -11.2 | SPR binding signal [11]: 383 | SPR binding signal [12]: 309 | SPR binding signal [13]: -11.5 | SPR binding signal [14]: 225 | SPR binding signal [15]: -7.9 | SPR binding signal [16]: -4.5 | SPR binding signal [17]: 486 | SPR binding signal [18]: -5.2 | binding result [19]: no binding
B2: anti-MS4A4A antibody 4A-21 (murine) (antibody, IgG1, V domains shown)
VH: QIQLVQSGPELKKPGETVKISCKASGYIFTSYGLSWVKQTPGKGLKWMGWINTYSGVPTYANDFKGRFAFSLETSASTTYLRINNLKNDDTATYFCARSLVDYWGQGTPLTVSS
VL: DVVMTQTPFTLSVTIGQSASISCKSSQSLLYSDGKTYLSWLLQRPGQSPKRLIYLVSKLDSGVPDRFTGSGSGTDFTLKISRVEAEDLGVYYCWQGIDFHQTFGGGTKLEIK
notes: murine hybridoma antibody, msIgG1; also called 4A-21 (msIgG1)

binding result [20]: binds | fold increase in MFI [21]: > 2 fold | fold increase in MFI [22]: > 2 fold | binding result [19]: no binding | binding result [23]: no binding
B3: anti-MS4A4A antibody 4A-206 (murine) (antibody, V domains shown)
VH: EVKLVESGGGLVKPGGSLKLSCAASGFTFSSYTMSWVRQTPEKRLEWVASLSSGGSTYYPDSVKGRFTISRDNARNILYLQMSSLRSEDTAMYYCAKDYYVSSYRWYFDVWGAGTTVTVSS
VL: DIQMTQITSSLSASLGDRVTISCRASQDISNYLNWYQQKPDGTVKLLIYYTSNLHSGVPSRFSGSGSGTDYSLTISNLEQEDIATYFCQQGKSFPWTFGGGTKLEIK
notes: murine hybridoma antibody

fold increase in MFI [24]: > 2 fold | binding result [19]: no binding | binding result [23]: no binding
B4: anti-MS4A4A antibody 4A-219 (murine) (antibody, V domains shown)
VH: QVQMKQSGPGLVQPSQSLSITCTVSGFSLTSYGVHWVRQSPGKGLEWLGVIWSGGSTDYNAAFISRLSISKDNSKSQVFFKMNSLQADDTAIYYCVRLYYGYDGFAYWGQGTLVTVSS
VL: DIVMTQSHKFMSTSVGDRVSITCKASQDVSTAVAWYQQKPGQSPKLLIYSASYRYTGVPDRFTGSGSGTDFTFTISSVQAEDLAVYYCQQHYSTPLTFGAGTKLELK
notes: murine hybridoma antibody

binding result [25]: no binding | Human 4A:parental cell ratio [26]: 1.96 ratio | Cyno 4A:parental cell ratio [5]: 1.22 ratio | binding result [2]: no binding (tested: 2000 nM) | binding result [3]: no binding (tested: 2000 nM) | binding result [4]: no binding (tested: 2000 nM) | binding result [27]: binds
B5: anti-MS4A4A antibody 4A-23 (antibody, V domains shown)
VH: EVQLQQSGPELVKPGASVKMSCQASGYTFTDYNIHWVKQSHGKSLKWIGYINPNNDDTTFNQKFKGKATLTVNKSSSTAYMELRSLTSEDSAVYYCARSPYCYFDVWGTGTTVTVSS
VL: DIQMTQSPSSLSASLGGKVTITCKASQDINKYIVWYQHKPGKGPRLLINYTSTLQPGIPSRFSGGGSGGDYSFSISNLEPEDIATYYCLQYDNLWTFGGGTKLEIK
notes: murine hybridoma antibody

Source: patent US20230126400A1 (Alector, published 2023)
